Data from article PMC5177890, “Controlled Orientation of Active Sites in a Nanostructured Multienzyme Complex” (Scientific Reports, 2016).

Target: the molecule itself
Assay: SEC; size exclusion chromatography of the enzyme in solution (Supplementary Fig. 1); conditions not told in the main text

B1: Formate dehydrogenase from Thiobacillus sp. KNK65MA, wild type (enzyme)
chain: MAKILCVLYDDPVDGYPKTYARDDLPKIDHYPGGQTLPTPKAIDFTPGQLLGSVSGELGLRKYLEANGHTFVVTSDKDGPDSVFEKELVDADVVISQPFWPAYLTPERIAKAKNLKLALTAGIGSDHVDLQSAIDRGITVAEVTYCNSISVAEHVVMMILGLVRNYIPSHDWARKGGWNIADCVEHSYDLEGMTVGSVAAGRIGLAVLRRLAPFDVKLHYTDRHRLPEAVEKELGLVWHDTREDMYPHCDVVTLNVPLHPETEHMINDETLKLFKRGAYIVNTARGKLADRDAIVRAIESGQLAGYAGDVWFPQPAPKDHPWRTMKWEGMTPHISGTSLSAQARYAAGTREILECFFEGRPIRDEYLIVQGGALAGTGAHSYSKGNATGGSEEAAKFKKAG
notes: NAD-dependent formate dehydrogenase of Thiobacillus sp; KNK65MA; fdh gene PCR amplified from pET-23b(+)-TsFDH and subcloned into pQE80; 45 kDa for a single subunit; also called FDH; FDH-WT; source: E. coli TOP10, purified (Ni-NTA agarose)
stoichiometry N: 2
